Reference: paper PMC6425953 (Cell reports, 2019)

B1: GST-Rng10(751–1,038) (domain or fragment)
chain: SNSKAPAIEETTTTKVEVVAAHDAVSISSNSSTHKSHSEPLNRDELEVAALSRGSLPEPPKPNKQIVVQEEDQRDTLSLKTSTTGLSSHSKSAENNSTQQSTTSPSINSGASADAVSSGISKKADNSETNLNYFATLDAFVKSPLMSFDGLGELGSTDQRYNFFNQKIQEYSAYDSGLDNWIQFCLEKDGEAPKEAPPPPRSEPVSTTTKLAKRITQPSLSPARSTVTITHNIATEAKKKSKSAANDILHLFKKKAKSEQSNAKSSSSSIKESKKMKTLFGKKLGFKS
B2: His6-Rga7(1–320) (domain or fragment)
chain: MLSAPSSSTTPASPPTSPPNTTSSDDFAVLKEPKVEAILNSELGLAILNDRIKDYLLTCKELAGFFKKRSILEEESGKNLQKLAKSYLETFQSKHHSPQSFSASVITSMEIHEQLANHSLTLQKTLSAFSDQVIEFHKNAERKRKSIKEYAKKQENAYLEAVMQMDKSKSRFKGAETEYNRALDNKNTGDSQKKVGFFKPKSNAQLTKLEDEARLKAENAESDMHSKIENAQNVQKQLLCIHRPNYIKQFFSLQREIESSLIANYLRYTKLCESNTLLNGLTIRPQKPTPTNCGLQHALDNINANTDFVQYVLHASIKHE
B3: GST-Rng10(751–950) (domain or fragment)
chain: SNSKAPAIEETTTTKVEVVAAHDAVSISSNSSTHKSHSEPLNRDELEVAALSRGSLPEPPKPNKQIVVQEEDQRDTLSLKTSTTGLSSHSKSAENNSTQQSTTSPSINSGASADAVSSGISKKADNSETNLNYFATLDAFVKSPLMSFDGLGELGSTDQRYNFFNQKIQEYSAYDSGLDNWIQFCLEKDGEAPKEAPPPP

Columns and labels:
His6-Rga7(1–320) = biological target: B2; experiment: supernatant depletion assay
AUC = biological target: the molecule itself; experiment: AUC

Binder | Kd (His6-Rga7(1–320)) [nM] | stoichiometry N (AUC)
B1 | 430 | –
B2 | – | 2
B3 | 690 | –
